To fix the notation:
B1: Poly(rC)-binding protein 1, residues 278 to 350; numbered along this chain, Q15365 (parent)
chain: TQTTHELTIPNNLIGCIIGRQGANINEIRQMSGAQIKIANPVEGSSGRQVTITGSAASISLAQYLINARLSSE

± gives the uncertainty stated by the source.

Variants of B1 are the subject of the data set. The data set can be described thus: abundance fitness (aPCA) (normalised: wild type 0, dead -1); higher = more abundant; growth selection in yeast, the domain comes from the species named. As to conditions: Homo sapiens.
Consider L61W, for which the abundance fitness is -0.238 ± 0.054.
As to L61G, the abundance fitness is -0.504 ± 0.044.
Regarding L61P, the abundance fitness is -0.943 ± 0.16.
The value for Q63I was 0.064 ± 0.12.
Under Q63V stands -0.019 ± 0.046; under Q63Y, -0.469 ± 0.22.
The value for Q63A was -0.077 ± 0.045.
On to Q63G, for which the abundance fitness was -0.264 ± 0.058.
The value for Q63C was -0.078 ± 0.11; that for Q63K was 0.223 ± 0.069.
For Q63P, the abundance fitness was -1.17 ± 0.27.
Consider Q63W, for which the abundance fitness was -0.28 ± 0.082.
Under Q63T stands 0.006 ± 0.053.
In the case of Q63H, the abundance fitness was -0.124 ± 0.23.
With Q63L, the abundance fitness stood at 0.116 ± 0.06.
For Q63M, the abundance fitness is -0.04 ± 0.07.
The value for Q63E was -0.002 ± 0.061.
Q63D: the abundance fitness is 0.091 ± 0.12.
Consider Q63F, for which the abundance fitness is -0.175 ± 0.12.
The value for G47E was 0.067 ± 0.039; that for G47K was -0.01 ± 0.052.
Take G47W: the abundance fitness was -0.073 ± 0.047.
The value for G47P was -0.491 ± 0.075.
Regarding G47S, the abundance fitness was 0.023 ± 0.043.
The value for G47V was 0.017 ± 0.029; that for G47N was 0.047 ± 0.099; that for G47Y was -0.008 ± 0.085.
Under G47M stands 0.043 ± 0.041; under G47A, 0.013 ± 0.036; under G47Q, 0.054 ± 0.056.
In the case of G47D, the abundance fitness was determined as 0.032 ± 0.062.
The value for G47H was -0.129 ± 0.094; that for G47F was -0.116 ± 0.096.
The value for G47I was -0.379 ± 0.18; that for G47C was -0.097 ± 0.062.
Take G47L: the abundance fitness amounted to 0 ± 0.03.
With G47T, the abundance fitness was 0.008 ± 0.052.
The value for G47R was -0.062 ± 0.035.
As to S58K, the abundance fitness is -0.3 ± 0.06.
As for S58Q, the abundance fitness came to 0.08 ± 0.045.
Under S58E stands 0.052 ± 0.038; under S58F, -0.149 ± 0.14; under S58W, -0.949 ± 0.11.
The value for S58M was -0.354 ± 0.06; that for S58L was -0.801 ± 0.076; that for S58N was 0.009 ± 0.14.
As to S58C, the abundance fitness was -0.241 ± 0.076.
Under S58G stands -0.227 ± 0.035.
Under S58D stands 0.009 ± 0.068.
Under S58V stands -0.568 ± 0.052; under S58I, -0.988 ± 0.43; under S58P, -0.47 ± 0.082.
With S58T, the abundance fitness is -0.241 ± 0.051.
The value for A57K was 0.116 ± 0.051.
Under A57G stands -0.126 ± 0.037; under A57Y, -0.194 ± 0.12; under A57P, -0.02 ± 0.053.
The value for A57M was -0.204 ± 0.069; that for A57C was -0.035 ± 0.077; that for A57D was 0.074 ± 0.071.
For A57W, the abundance fitness is -0.247 ± 0.055.
On to A57N, for which the abundance fitness was determined as 0.061 ± 0.086.
Under A57E stands 0.088 ± 0.05.
On to A57S, for which the abundance fitness worked out at 0.016 ± 0.042.
The value for A57F was -0.096 ± 0.12; that for A57L was -0.327 ± 0.055; that for A57T was -0.125 ± 0.056.
In the case of A57V, the abundance fitness is -0.243 ± 0.046.
The value for A57Q was 0.068 ± 0.065.
Take A57R: the abundance fitness turned out to be 0.059 ± 0.035.
Under A57I stands -0.127 ± 0.14.
Regarding A57H, the abundance fitness worked out at 0.051 ± 0.11.
The value for S45M was 0.005 ± 0.073.
With S45R, the abundance fitness is -0.157 ± 0.07.
With S45K, the abundance fitness was 0.094 ± 0.076.
As to S45N, the abundance fitness is -0.031 ± 0.067.
Under S45W stands -0.431 ± 0.15.
Under S45L stands -0.011 ± 0.05; under S45V, -0.012 ± 0.087; under S45T, 0.056 ± 0.046.
The value for S45Y was -0.044 ± 0.075; that for S45P was -0.442 ± 0.091.
For S45Q, the abundance fitness is -0.054 ± 0.065.
In the case of G54F, the abundance fitness was -0.507 ± 0.25.
Regarding G54Q, the abundance fitness was -1.11 ± 0.29.
The value for G54D was -0.834 ± 0.19; that for G54M was -1.02 ± 0.26; that for G54A was -0.916 ± 0.083.
The value for G54K was -0.804 ± 0.18.
Take G54H: the abundance fitness is -0.465 ± 0.21.
The value for G54W was -0.912 ± 0.14; that for G54E was -0.838 ± 0.13; that for G54C was -0.85 ± 0.18.
Under G54Y stands -1.08 ± 0.46; under G54P, -0.805 ± 0.12; under G54T, -0.854 ± 0.12.
The value for G54L was -0.877 ± 0.12.
Take G54S: the abundance fitness is -0.881 ± 0.11.
Take R48P: the abundance fitness was -0.714 ± 0.11.
R48K: the abundance fitness was -0.451 ± 0.066.
In the case of R48L, the abundance fitness is -0.328 ± 0.046.
Under R48E stands -0.752 ± 0.088; under R48M, -0.217 ± 0.054.
The value for R48Q was -0.257 ± 0.058.
Regarding R48T, the abundance fitness is -0.158 ± 0.049.
Under R48G stands -0.597 ± 0.043; under R48W, -0.184 ± 0.044.
Under R48D stands -0.626 ± 0.12; under R48I, -0.205 ± 0.08.
The value for R48A was -0.113 ± 0.04; that for R48C was -0.114 ± 0.05.
For R48H, the abundance fitness is -0.118 ± 0.085.
The value for R48Y was 0.045 ± 0.064; that for R48V was -0.093 ± 0.034.
Under R48N stands -0.368 ± 0.1.
Under Y64S stands 0.24 ± 0.05; under Y64M, -0.098 ± 0.11; under Y64C, 0.195 ± 0.09.
Consider Y64P, for which the abundance fitness was -0.312 ± 0.13.
The value for Y64D was 0.411 ± 0.072.
Under Y64R stands 0.28 ± 0.043.
The value for Y64V was 0.121 ± 0.05; that for Y64K was 0.233 ± 0.074.
Regarding Y64H, the abundance fitness came out at 0.064 ± 0.14.
The value for Y64L was -0.031 ± 0.078.
The value for Y64N was 0.328 ± 0.082; that for Y64E was 0.298 ± 0.053.
The value for Y64F was -0.266 ± 0.23; that for Y64W was -0.209 ± 0.11; that for Y64Q was 0.14 ± 0.098.
For the variant Y64T, the abundance fitness turned out to be 0.287 ± 0.059.
Take Y64G: the abundance fitness stood at 0.212 ± 0.038.
T51L: the abundance fitness was -0.034 ± 0.037.
Under T51H stands -0.287 ± 0.17; under T51N, -0.427 ± 0.23; under T51D, -0.542 ± 0.22.
The value for T51W was -0.063 ± 0.058; that for T51V was -0.027 ± 0.033.
T51Y: the abundance fitness is -0.07 ± 0.099.
Under T51C stands 0.024 ± 0.085; under T51K, 0.005 ± 0.052; under T51Q, -0.088 ± 0.048.
Under T51S stands -0.02 ± 0.042.
Take T51M: the abundance fitness is -0.066 ± 0.043.
Under T51E stands -0.097 ± 0.038; under T51R, -0.054 ± 0.043; under T51P, -0.682 ± 0.11.
Regarding T51F, the abundance fitness is -0.071 ± 0.12.
Under T51I stands -0.107 ± 0.11; under T51G, -0.574 ± 0.065; under I52R, -0.996 ± 0.1.
On to I52G, for which the abundance fitness is -1.05 ± 0.1.
I52S: the abundance fitness is -0.574 ± 0.09.
The value for I52L was -0.039 ± 0.037; that for I52E was -0.732 ± 0.097.
With I52P, the abundance fitness was -0.698 ± 0.15.
For the variant I52T, the abundance fitness is -0.739 ± 0.15.
The value for I52F was -0.694 ± 0.26.
The value for I52N was -0.878 ± 0.47; that for I52Y was -1.09 ± 0.39.
Under I52W stands -1.02 ± 0.16; under I52V, -0.218 ± 0.037; under I52K, -0.631 ± 0.098.
Take I52D: the abundance fitness was -0.583 ± 0.25.
Consider I52C, for which the abundance fitness is -1.03 ± 0.27.
The value for I52H was -0.927 ± 0.29.
Under I52M stands -0.225 ± 0.053.
